Source: PMC9045721, “Cryo-EM structure of the EBV ribonucleotide reductase BORF2 and mechanism of APOBEC3B inhibition” (Science Advances, 2022)
Substitutions are numbered along the chain they refer to. Names and notes keep the numbering of the source.

B1: MBP-BORF2 (1 to 826) (enzyme)
chain: MATTSHVEHELLSKLIDELKVKANSDPEADVLAGRLLHRLKAESVTHTVAEYLEVFSDKFYDEEFFQMHRDELETRVSAFAQSPAYERIVSSGYLSALRYYDTYLYVGRSGKQESVQHFYMRLAGFCASTTCLYAGLRAALQRARPEIESDMEVFDYYFEHLTSQTVCCSTPFMRFAGVENSTLASCILTTPDLSSEWDVTQALYRHLGRYLFQRAGVGVGVTGAGQDGKHISLLMRMINSHVEYHNYGCKRPVSVAAYMEPWHSQIFKFLETKLPENHERCPGIFTGLFVPELFFKLFRDTPWSDWYLFDPKDAGDLERLYGEEFEREYYRLVTAGKFCGRVSIKSLMFSIVNCAVKAGSPFILLKEACNAHFWRDLQGEAMNAANLCAEVLQPSRKSVATCNLANICLPRCLVNAPLAVRAQRADTQGDELLLALPRLSVTLPGEGAVGDGFSLARLRDATQCATFVVACSILQGSPTYDSRDMASMGLGVQGLADVFADLGWQYTDPPSRSLNKEIFEHMYFTALCTSSLIGLHTRKIFPGFKQSKYAGGWFHWHDWAGTDLSIPREIWSRLSERIVRDGLFNSQFIALMPTSGCAQVTGCSDAFYPFYANASTKVTNKEEALRPNRSFWRHVRLDDREALNLVGGRVSCLPEALRQRYLRFQTAFDYNQEDLIQMSRDRAPFVDQSQSHSLFLREEDAARASTLANLLVRSYELGLKTIMYYCRIEKAADLGVMECKASAALSVPREEQNERSPAEQMPPRPMEPAQVAGPVDIMSKGPGEGPGGWCVPGGLEVCYKYRQLFSEDDLLETDGFTERACESCQ
notes: Epstein-Barr virus ribonucleotide reductase large subunit BORF2, residues 1 to 826, codon-optimized gene; wild-type constructs match GenBank V01555.2; Dimer in the cryo-EM structure; The MBP tag was not detected in the maps; also called EBV RNR large subunit; wild-type BORF2; source: 293T, transfected; purified (amylose resin, SEC); not shown: MBP, N-terminal, kept
B2: MBP-BORF2 D26R (enzyme, Epstein-Barr virus (EBV), UniProt P03190 1-826, looked up)
chain: B1 chain with D26R
notes: Epstein-Barr virus BORF2, residues 1 to 826, codon-optimized gene; GenBank V01555.2; source: 293T, transfected; purified with amylose resin (SEC profiles); in lysate (co-IP); not shown: MBP, N-terminal, kept
B3: MBP-BORF2 R39E/D26R (enzyme, Epstein-Barr virus (EBV), UniProt P03190 1-826, looked up)
chain: B1 chain with D26R, R39E
notes: Epstein-Barr virus BORF2, residues 1 to 826, codon-optimized gene; GenBank V01555.2; also called D26R/R39E BORF2; double mutant R39E/D26R; source: 293T, transfected; purified with amylose resin (SEC profiles); in lysate (co-IP); not shown: MBP, N-terminal, kept
B4: A3Bctd (193-382)-mycHis (domain or fragment)
chain: not shown
notes: APOBEC3B (A3B) C-terminal catalytic domain (ctd), residues 193-382; wild-type constructs match GenBank NM_004900; also called A3Bctd-mycHis; A3B-mycHis; not shown: myc, C-terminal, kept; His, C-terminal, kept

Legend:
A3Bctd (193-382)-mycHis = molecular target: B4; test: SEC; BORF2 and A3Bctd purified individually with affinity resins, mixed with excess A3Bctd, run on SEC; SDS-PAGE of the fractions of the major peak; 20 mM tris-HCl (pH 8), 150 mM NaCl; conditions: both partners purified
[1] = molecular target: the molecule itself; test: cryo-EM structure; MBP-BORF2 (after amylose resin) mixed with excess purified A3Bctd-mycHis, complex isolated by SEC in 20 mM tris-HCl (pH 8), 150 mM NaCl, 1 mM TCEP; dimeric classes, C2, focused refinement
[2] = molecular target: the molecule itself; test: SEC; MBP-BORF2 and mutant derivatives purified with amylose resin; approximately 150 ug of each on S200 Increase in 10 mM tris-HCl (pH 8), 150 mM NaCl; self-association (dimer to monomers)
MBP-BORF2 (1 to 826) = molecular target: B1; test: BLI; Octet RED; A3-mycHis proteins loaded on Ni-NTA biosensors (12.5 ug/ml A3Bctd and A3A, 8 ug/ml A3G); MBP-BORF2 200 to 6.25 nM; 20 mM tris-HCl (pH 8), 300 mM NaCl; 30°C; association 1200 s, dissociation 1800 s; 1:2 binding model; conditions: both partners purified

A3Bctd (193-382)-mycHis, sequence (Q9UH17 193-382): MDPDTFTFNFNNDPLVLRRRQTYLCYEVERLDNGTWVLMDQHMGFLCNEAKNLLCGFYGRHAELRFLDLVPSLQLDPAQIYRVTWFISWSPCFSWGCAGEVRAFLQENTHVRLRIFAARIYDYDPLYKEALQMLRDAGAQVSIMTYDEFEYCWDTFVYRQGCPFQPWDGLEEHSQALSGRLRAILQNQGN

## B1
A3Bctd (193-382)-mycHis
  stoichiometry N: 1
[1]
  stoichiometry N: 2

## B2
[2]
  binding result: binds

## B3
[2]
  binding result: binds

## B4
MBP-BORF2 (1 to 826)
  Kd: ~1 nM
